IntAct's records for PubMed 23123112

B1: Protein SLM4 (Saccharomyces cerevisiae), P38247 (parent)
chain: MVMLHSKNVKGFLENTLKPYDLHSVDFKTSSLQSSMIITATNGGILSYATSNNDVPKNSINEINSVNNLKMMSLLIKDKWSEDENDTEEQHSNSCYPVEIDSFKTKIYTYEMEDLHTCVAQIPNSDLLLLFIAEGSFPYGLLVIKIERAMRELTDLFGYKLG
partner: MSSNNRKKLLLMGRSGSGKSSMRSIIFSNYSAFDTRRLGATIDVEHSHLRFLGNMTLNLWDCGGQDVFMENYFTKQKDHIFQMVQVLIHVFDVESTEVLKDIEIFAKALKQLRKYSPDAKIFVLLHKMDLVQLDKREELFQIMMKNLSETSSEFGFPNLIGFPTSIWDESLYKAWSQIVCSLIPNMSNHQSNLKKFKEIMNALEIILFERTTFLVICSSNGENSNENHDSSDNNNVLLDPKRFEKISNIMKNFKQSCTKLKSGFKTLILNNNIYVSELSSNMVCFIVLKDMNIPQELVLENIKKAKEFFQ
B2: Protein SLM4 (Saccharomyces cerevisiae), P38247 (parent)
chain: B1 chain
partner: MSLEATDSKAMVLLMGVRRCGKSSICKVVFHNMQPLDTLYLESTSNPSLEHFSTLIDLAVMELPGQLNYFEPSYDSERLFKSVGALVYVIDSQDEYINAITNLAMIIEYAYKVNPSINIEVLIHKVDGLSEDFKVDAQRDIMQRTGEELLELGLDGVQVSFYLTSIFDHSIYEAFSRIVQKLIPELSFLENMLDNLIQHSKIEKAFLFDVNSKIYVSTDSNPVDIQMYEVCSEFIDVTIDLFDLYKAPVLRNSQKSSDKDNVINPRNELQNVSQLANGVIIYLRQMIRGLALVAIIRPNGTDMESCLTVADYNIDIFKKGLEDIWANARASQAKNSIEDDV

Variants of: B1
Conditions: with ragab_yeast GTR1, Q00582

effect of a mutation on the interaction | Variant
decreasing interaction strength | MVMLHSKNVKGFLENTLKPYDLHSVDFKTSSLQSSMIITATNGGILSYATSNNDVPKNSINEINSVAALAAMSLLIKDKWSEDENDTEEQHSNSCYPVEIDSFKTKIYTYEMEDLHTCVAQIPNSDLLLLFIAEGSFPYGLLVIKIERAMRELTDLFGYKLG [N67A;N68A;K70A;M71A]

Variants of: B2
Conditions: with ragcd_yeast GTR2, P53290

effect of a mutation on the interaction | Variant
decreasing interaction strength | MVMLHSKNVKGFLENTLKPYDLHSVDFKTSSLQSSMIITATNGGILSYATSNNDVPKNSINEINSVAALAAMSLLIKDKWSEDENDTEEQHSNSCYPVEIDSFKTKIYTYEMEDLHTCVAQIPNSDLLLLFIAEGSFPYGLLVIKIERAMRELTDLFGYKLG [N67A;N68A;K70A;M71A]
